{
  "source": "paper doi:10.1101/2023.03.23.533910",
  "about": "(bioRxiv, 2023)",
  "proteins": {"B1": {"name": "3xHA-tagged SNC1 (natural protein, Arabidopsis thaliana, UniProt O23530 1-1437, looked up)", "chain": "MMDTSKDDDMEIASSSGSRRYDVFPSFRGEDVRDSFLSHLLKELRGKAITFIDDEIERSRSIGPELLSAIKESRIAIVIFSKNYASSTWCLNELVEIHKCYTNLNQMVIPIFFHVDASEVKKQTGEFGKVFEETCKAKSEDEKQSWKQALAAVAVMAGYDLRKWPSEAAMIEELAEDVLRKTMTPSDDFGDLVGIENHIEAIKSVLCLESKEARIMVGIWGQSGIGKSTIGRALYSKLSIQFHHRAFITYKSTSGSDVSGMKLRWEKELLSEILGQKDIKIEHFGVVEQRLKQQKVLILLDDVDSLEFLKTLVGKAEWFGSGSRIIVITQDRQLLKAHEIDLIYEVEFPSEHLALTMLCRSAFGKDSPPDDFKELAFEVAKLAGNLPLGLSVLGSSLKGRTKEWWMEMMPRLRNGLNGDIMKTLRVSYDRLHQKDQDMFLYIACLFNGFEVSYVKDLLKDNVGFTMLTEKSLIRITPDGYIEMHNLLEKLGREIDRAKSKGNPGKRRFLTNFEDIHEVVTEKTGTETLLGIRLPFEEYFSTRPLLIDKESFKGMRNLQYLEIGYYGDLPQSLVYLPLKLRLLDWDDCPLKSLPSTFKAEYLVNLIMKYSKLEKLWEGTLPLGSLKEMNLRYSNNLKEIPDLSLAINLEELDLVGCKSLVTLPSSIQNATKLIYLDMSDCKKLESFPTDLNLESLEYLNLTGCPNLRNFPAIKMGCSDVDFPEGRNEIVVEDCFWNKNLPAGLDYLDCLTRCMPCEFRPEQLAFLNVRGYKHEKLWEGIQSLGSLEGMDLSESENLTEIPDLSKATKLESLILNNCKSLVTLPSTIGNLHRLVRLEMKECTGLEVLPTDVNLSSLETLDLSGCSSLRSFPLISTNIVWLYLENTAIEEIPSTIGNLHRLVRLEMKKCTGLEVLPTDVNLSSLETLDLSGCSSLRSFPLISESIKWLYLENTAIEEIPDLSKATNLKNLKLNNCKSLVTLPTTIGNLQKLVSFEMKECTGLEVLPIDVNLSSLMILDLSGCSSLRTFPLISTNIVWLYLENTAIEEIPSTIGNLHRLVKLEMKECTGLEVLPTDVNLSSLMILDLSGCSSLRTFPLISTRIECLYLQNTAIEEVPCCIEDFTRLTVLMMYCCQRLKTISPNIFRLTRLELADFTDCRGVIKALSDATVVATMEDHVSCVPLSENIEYIWDKLYRVAYLQEHFSFRNCFKLDRDARELILRSCFKPVALPGEEIPKYFTYRAYGDSLTVIVPQSSLSQNFLRFKACVVVEPLSKGKGFYPFLKVNVGFNGKQYQKSFSKDAELELCKTDHLFFCSFKFRSEDLPSKLNFNDVEFKFCCSNRIKECGVRLMYVSQEENNQQTTRSEKRMRMTSGTSEEDINLPYGLIVADTGLAALNMELSLGQGEPSSSTSLEGEALCVDYMITEEQDKGIPILFPVSGN"}},
  "target": "the molecule itself",
  "experiment": "native gel or EMSA",
  "data": [
    {"protein": "B1", "values": [
      {"measurement": "stoichiometry N", "value": "~4"}
    ]}
  ]
}
